Data on 1 protein can be found in ChEMBL document CHEMBL1157388, “Recent developments in fragment-based drug discovery” (J Med Chem, 2008).

Substrate in data set [1]: O=P(O)(O)Oc1ccc(-c2ccccc2)cc1
Substrate in data set [2]: O=[N+]([O-])c1ccc(OP(=O)(O)O)cc1

B1: Receptor-type tyrosine-protein phosphatase beta (Homo sapiens), P23467 (protein)
chain: MLSHGAGLALWITLSLLQTGLAEPERCNFTLAESKASSHSVSIQWRILGSPCNFSLIYSSDTLGAALCPTFRIDNTTYGCNLQDLQAGTIYNFRIISLDEERTVVLQTDPLPPARFGVSKEKTTSTSLHVWWTPSSGKVTSYEVQLFDENNQKIQGVQIQESTSWNEYTFFNLTAGSKYNIAITAVSGGKRSFSVYTNGSTVPSPVKDIGISTKANSLLISWSHGSGNVERYRLMLMDKGILVHGGVVDKHATSYAFHGLTPGYLYNLTVMTEAAGLQNYRWKLVRTAPMEVSNLKVTNDGSLTSLKVKWQRPPGNVDSYNITLSHKGTIKESRVLAPWITETHFKELVPGRLYQVTVSCVSGELSAQKMAVGRTFPDKVANLEANNNGRMRSLVVSWSPPAGDWEQYRILLFNDSVVLLNITVGKEETQYVMDDTGLVPGRQYEVEVIVESGNLKNSERCQGRTVPLAVLQLRVKHANETSLSIMWQTPVAEWEKYIISLADRDLLLIHKSLSKDAKEFTFTDLVPGRKYMATVTSISGDLKNSSSVKGRTVPAQVTDLHVANQGMTSSLFTNWTQAQGDVEFYQVLLIHENVVIKNESISSETSRYSFHSLKSGSLYSVVVTTVSGGISSRQVVVEGRTVPSSVSGVTVNNSGRNDYLSVSWLLAPGDVDNYEVTLSHDGKVVQSLVIAKSVRECSFSSLTPGRLYTVTITTRSGKYENHSFSQERTVPDKVQGVSVSNSARSDYLRVSWVHATGDFDHYEVTIKNKNNFIQTKSIPKSENECVFVQLVPGRLYSVTVTTKSGQYEANEQGNGRTIPEPVKDLTLRNRSTEDLHVTWSGANGDVDQYEIQLLFNDMKVFPPFHLVNTATEYRFTSLTPGRQYKILVLTISGDVQQSAFIEGFTVPSAVKNIHISPNGATDSLTVNWTPGGGDVDSYTVSAFRHSQKVDSQTIPKHVFEHTFHRLEAGEQYQIMIASVSGSLKNQINVVGRTVPASVQGVIADNAYSSYSLIVSWQKAAGVAERYDILLLTENGILLRNTSEPATTKQHKFEDLTPGKKYKIQILTVSGGLFSKEAQTEGRTVPAAVTDLRITENSTRHLSFRWTASEGELSWYNIFLYNPDGNLQERAQVDPLVQSFSFQNLLQGRMYKMVIVTHSGELSNESFIFGRTVPASVSHLRGSNRNTTDSLWFNWSPASGDFDFYELILYNPNGTKKENWKDKDLTEWRFQGLVPGRKYVLWVVTHSGDLSNKVTAESRTAPSPPSLMSFADIANTSLAITWKGPPDWTDYNDFELQWLPRDALTVFNPYNNRKSEGRIVYGLRPGRSYQFNVKTVSGDSWKTYSKPIFGSVRTKPDKIQNLHCRPQNSTAIACSWIPPDSDFDGYSIECRKMDTQEVEFSRKLEKEKSLLNIMMLVPHKRYLVSIKVQSAGMTSEVVEDSTITMIDRPPPPPPHIRVNEKDVLISKSSINFTVNCSWFSDTNGAVKYFTVVVREADGSDELKPEQQHPLPSYLEYRHNASIRVYQTNYFASKCAENPNSNSKSFNIKLGAEMESLGGKCDPTQQKFCDGPLKPHTAYRISIRAFTQLFDEDLKEFTKPLYSDTFFSLPITTESEPLFGAIEGVSAGLFLIGMLVAVVALLICRQKVSHGRERPSARLSIRRDRPLSVHLNLGQKGNRKTSCPIKINQFEGHFMKLQADSNYLLSKEYEELKDVGRNQSCDIALLPENRGKNRYNNILPYDATRVKLSNVDDDPCSDYINASYIPGNNFRREYIVTQGPLPGTKDDFWKMVWEQNVHNIVMVTQCVEKGRVKCDHYWPADQDSLYYGDLILQMLSESVLPEWTIREFKICGEEQLDAHRLIRHFHYTVWPDHGVPETTQSLIQFVRTVRDYINRSPGAGPTVVHCSAGVGRTGTFIALDRILQQLDSKDSVDIYGAVHDLRLHRVHMVQTECQYVYLHQCVRDVLRARKLRSEQENPLFPIYENVNPEYHRDPVYSRH
For orientation: Km means the substrate concentration at which the rate is half of its maximum. For the protein B1, the Km came out at 86 µM in data set [1] and 1340 µM in data set [2].
